Laboratory results from patent publication US12643954B2, “Anti-CD36 antibodies and their use to treat cancer” (ONA Therapeutics, S.L., priority 2020, dated 2026).
Where two headings read alike, the source gives them in different places.

Legend:
[1] = biological target: T1, cells overexpressing human CD36 (Homo sapiens, UniProt P16671); test: FACS binding to cells overexpressing human CD36
T1 construct: expressed in transfected cells
Protocol: For FACS analysis, cells were trypsinized, collected in a 15 mL tube and diluted in washing buffer (2% FBS in PBS). Cells were then centrifuged at 1500 rpm for 5 min at 4° C., supernatant was discarded, and cells were resuspended in fresh washing buffer. Anti-CD36 antibodies were either omitted (control wash buffer treatment) or serially diluted in washing buffer (dilution range up to 100 nM), and then added to the cells. Incubation was performed on ice for 1 hour. Cells were then centrifuged at 1500 rpm for 5 min at 4° C., supernatant was discarded, and cells were resuspended in fresh washing buffer. Finally, cells were incubated with a […] (BV421 Rat Anti-Mouse IgA, Becton Dickinson, reference 743293) diluted 1:100 in washing buffer, washed and analysed by FACS.

[2] = biological target: T2, CD36 (Homo sapiens, UniProt P16671); test: Surface plasmon resonance (Biacore T200) affinity for human CD36; type: binding; conditions: SPR
Protocol: The affinity of ONA-0-v1, 1G04, and a commercial anti-CD36 antibody (JC63.1) for human CD36 was also measured by surface plasmon resonance (SPR) using a Biacore T200. 1G04 was analysed using a protein A capture surface, with a capture range of 100-150 RU and an antigen titration range of 3.3-333 nM. The mouse antibodies ONA-0-V1 and the commercial anti-CD36 antibody were analysed using an anti-mouse IgA capture surface, with a capture range of 160-180 RU and an antigen titration range of 3.3-333 nM. For each single analysis cycle a titration of five antigen concentrations were injected over the captured antibody and then the dissociation of the complex was measured. A double referencing method was employed in which data from the reference surfaces where no antibody was captured (fc 1 and 3 respectively) were subtracted from the antibody bound capture surface (fc 2 and 4). Blank injections of buffer were run for every antigen titration cycle and then subtracted from analyte injection cycles, to correct for small changes in the antibody capture surface density. All analysis was performed at 25° C., and the sample rack was kept at 6° C. during experimental runs. Each experiment was run at least three times with the mean binding constants generated from at least two independent assays reported. All analysis was performed in PBS-T running buffer at 40 μL/min.
Target sequence in this assay (P16671 whole entry): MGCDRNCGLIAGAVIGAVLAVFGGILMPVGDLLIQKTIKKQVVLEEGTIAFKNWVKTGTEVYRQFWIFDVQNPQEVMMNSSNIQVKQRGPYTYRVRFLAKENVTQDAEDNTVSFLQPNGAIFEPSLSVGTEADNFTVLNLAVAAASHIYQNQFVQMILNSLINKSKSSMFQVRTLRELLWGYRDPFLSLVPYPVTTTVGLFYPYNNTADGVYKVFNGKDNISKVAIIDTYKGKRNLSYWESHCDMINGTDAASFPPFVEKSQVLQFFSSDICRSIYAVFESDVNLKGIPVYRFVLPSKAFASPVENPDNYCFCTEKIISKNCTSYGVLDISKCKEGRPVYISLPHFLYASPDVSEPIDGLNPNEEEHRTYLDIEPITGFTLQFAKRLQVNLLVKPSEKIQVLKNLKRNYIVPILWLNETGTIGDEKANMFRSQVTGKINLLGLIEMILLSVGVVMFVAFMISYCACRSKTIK

[3] = tested on: FaDu cells; test: FaDu orthotopic mouse model of oral cancer metastasis; type: in vivo
Protocol: NOD scid gamma (NSG) (NOD.Cg-Prkdc^scidII2rg^tm1Wj1/SzJ) mice were purchased from Charles River and crossed in-house. All mice were housed under a regimen of 12h light/12h dark cycles and SPF conditions, and all procedures were evaluated and approved by the CEEA (Ethical Committee for Animal Experimentation) from the Government of Catalunya. SCC intra-tongue injection was performed as previously described (Oskarsson et al., 2014; Nieman et al., 2011). Briefly, mice were anesthetized by intraperitoneal injection with a mixture of 50 mg per kg of ketamine and 0.5 mg per kg of medetomidin, and SCC cells resuspended in 30 μl PBS were injected into each mouse tongue with a BD ultra-fine 6 mm needle. Mice were monitored for the luciferase bioluminescent signal immediately after injection (TO) and once weekly thereafter with a Xenogen IVIS Imaging System-100 (Caliper Life Sciences). Briefly, animals were injected by retro-orbital injection with 50 μl of D-luciferin (Promega) diluted in 1×PBS at 5 mg ml^−1. Continuous administration of isofluorane gas was provided to ensure anesthetizing animals during imaging. Data was quantified with the Living Image software version 4.4 (Caliper Life Sciences). Quantifications were calculated with unsaturated pixels. Color scale minimum and maximum values are shown in pictures.
Studies on the combination of the effects of the ONA-0-v1 anti-CD36 antibody, both with and without cisplatin, were performed in NSG mice (immuno-deficient). The studies included both male and female mice. All mice were inoculated with commercially available FaDu (ATCC) cancer cells, transduced with a retroviral vector expressing luciferase and the green fluorescent protein (Luc-GFP). FaDu cells were derived from a squamous cell carcinoma (i.e., from an oral cancer). Prior to inoculation, the FaDu cells were cultured in a humidified incubator at 37° C. with 5% CO2, and were grown in EMEM (LONZA) supplemented with 5 μg ml^−1 penicillin/streptomycin and 10% FBS (GIBCO).
For each mouse, 100,000 FaDu cells were inoculated via orthotopic injection.
Treatment of the inoculated mice began nine days after inoculation with the cancer cells. Inoculated mice were divided into four distinct treatment groups.
Antibody treatments were administered via intraperitoneal (i.p.) injection daily at a dose of 1 mg/kg. Cisplatin was administered twice weekly at a dose of 2 mg/kg (Groups 2 and 4). […] During the course of treatment, mice were observed once weekly using an in vivo imaging system (IVIS). Further, mouse body weight was measured twice weekly to update appropriate dosage amounts. At the end of the treatment period, the mice were sacrificed, and organs and tissues were collected for performance of immunohistochemistry analysis.

[4] = biological target: T2, CD36; test: ELISA binding to plate-coated human CD36; set-up: purchased Sino Biological 10752-H08H; conditions: recombinant human CD36 coated plates
Protocol: To perform ELISA assays, 96-well ELISA plates were coated over night with human CD36 (Sino Biological, reference 10752-H08H) or mouse CD36 (Sino Biological, reference 50422-M08H) recombinant proteins at a concentration of 0.25 mg/ml. After two washes with PBS, plates were blocked with 4% skimmed milk in PBS for 1 hour at 37° C. Blocking solution was discarded and plates were washed five times with 200 μl/well PBS-Tween20 (0.5%). Primary antibodies were either omitted (control blocking solution treatment) or mixed in blocking solution at several dilutions ranging from 0.01 nM to 0.5 μM. The primary antibody solutions were added to the wells and incubated over night at 4° C. After 5 washes with 200 ul/well of PBS-Tween20 (0.5%), plates were incubated for 1 hour at room temperature with a goat anti-mouse HRP-conjugated antibody (Abeam, reference ab97235) diluted 1:2000 in blocking solution. Plates were then washed 5 times with 200 μl/well of PBS-Tween20 (0.5%), incubated with 100 μl/well TMB and detected after 10 minutes, 30 minutes, or 60 minutes with a spectrophotometer at a wave length of 630 nm.
Target sequence in this assay (P16671 30-439 limits assumed): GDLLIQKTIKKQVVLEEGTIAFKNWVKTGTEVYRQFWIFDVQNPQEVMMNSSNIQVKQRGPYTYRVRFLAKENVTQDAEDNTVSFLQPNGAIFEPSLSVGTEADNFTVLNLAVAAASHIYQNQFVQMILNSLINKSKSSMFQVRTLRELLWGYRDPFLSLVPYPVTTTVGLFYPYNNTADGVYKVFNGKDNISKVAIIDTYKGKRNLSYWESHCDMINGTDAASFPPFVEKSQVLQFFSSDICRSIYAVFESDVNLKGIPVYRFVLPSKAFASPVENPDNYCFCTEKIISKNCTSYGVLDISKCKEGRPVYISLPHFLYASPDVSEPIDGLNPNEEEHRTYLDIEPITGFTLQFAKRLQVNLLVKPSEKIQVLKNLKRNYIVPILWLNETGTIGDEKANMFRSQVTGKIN

[5] = antibody alone 1 mg/kg i.p. daily
[6] = antibody in combination with cisplatin

T1 sequence (P16671 whole entry): as the sequence (P16671 whole entry) above

B1: ONA-0-v1: murine IgA anti-CD36 antibody; heavy chain SEQ ID NO: 5, light chain SEQ ID NO: 7 (antibody)
heavy: QVQLKQSGADLVRPGASVKLSCKASGYTFTDYYINWVKQRPGQGLEWIARIYPGSGNTYYNEKFKGKATLTAEKSSSTAYMQLSSLTSEDSAVYFCARGIGGGFGMDYWGQGTSVTVSSESARNPTIYPLTLPPVLCSDPVIIGCLIHDYFPFGTMNVTWGKSGKDITTVNFPPALASGGRYTMSSQLTLPAVECPEGESVKCSVQHDSNPVQELDVNCSPTPPPPITIPSCQPSLSLQRPALEDLLLGSDASITCTLNGLRNPEGAAFTWEPSTGKDAVQKKAAQNSCGCYSVSSVLPGCAERWNSGASFKCTVTHPESGTLTGTIAKVTVNTFPPQVHLLPPPSEELALNELLSLTCLVRAFNPKEVLVRWLHGNEELSPESYLVFEPLKEPGEGATTYLVTSVLRVSAETWKQGDQYSCMVGHEALPMNFTQKTIDRLSGKPTNVSVSVIMSEGDGICY
light: SIVMTQTPKFLLVSAGDRITITCKASQSVSDDVAWYQQKPGQSPKLLIYYASNRYTGVPDRFTGSGYGTDFTFTISTVQAEDLAVYFCQQDYSSPLTFGAGTKLEIKRADAAPTVSIFPPSSEQLTSGGASVVCFLNNFYPKDINVKWKIDGSERQNGVLNSWTDQDSKDSTYSMSSTLTLTKDEYERHNSYTCEATHKTSTSPIVKSFNRNEC
modifications: ONA-0-v1 heavy chain; ONA-0-v1 light chain
In the case of B1, the “binding to cells overexpressing human CD36 (FACS)” value ([1]; antibodies at 100 nM) is reported as “bound equivalently”, the “binding to cells overexpressing human CD36 (FACS)” value ([1]; serial dilution up to 100 nM) is reported as “specifically bound” and the ka ([2]; 1-to-1 model, 25° C.) is reported as 632000 M⁻¹ s⁻¹. It also gave a kd ([2]; 1-to-1 model, 25° C.) of 0.00354 s⁻¹, a ka1 ([2]; 2-state model) of 108000 M⁻¹ s⁻¹ and a ka2 ([2]; 2-state model) of 0.000558 s⁻¹. The kd1 ([2]; 2-state model) was 0.0023 s⁻¹, the kd2 ([2]; 2-state model) was 0.000393 s⁻¹ and the ka2 ([2]; bivalent model) was 6.74E−05 1/RUs. For the same molecule, the kd1 ([2]; bivalent model) was 0.00259 s⁻¹, the kd2 ([2]; bivalent model) was 0.000527 s⁻¹ and the ka1 ([2]; bivalent model, first ka1 column) was 33400 M⁻¹ s⁻¹. The Kd ([2]; bivalent model, read-out: KD1) was 77.3 nM, the Kd ([2]; bivalent model, read-out: KD2) was 986 nM and the “tolerability over the course of treatment” value ([3]; NSG mice) was “well-tolerated”. The “effect on mouse body weight relative to isotype control” value ([3]; antibody alone) was “did not have any effects”, the “effect on platelet count relative to isotype control” value ([3]; antibody alone) was “did not have any effects” and the “growth of lymph node metastases (IVIS relative intensity)” value [3, 5] was “able to inhibit growth”. For the same molecule, the “inhibition of lymph node metastatic tumor growth relative to IgA isotype control (ratio of IVIS intensity end/start)” value [3, 5] was “greater than 50%”, the “effect on cisplatin-mediated weight loss and decrease in platelet count” value [3, 6] was “did not significantly enhance” and the “growth of lymph node metastases (IVIS relative intensity)” value [3, 6] was “almost complete inhibition”. The “mice in which metastasis into lymph nodes was prevented” value ([3]; antibody in combination with cisplatin, eight tested mice) was “five of the eight”, the “mice in which metastasis into lymph nodes was prevented” value ([3]; single agent, eight tested mice per group) was “one of the eight” and the “effect on primary tumor (IVIS imaging and H&E staining)” value ([3]; single agent, antibody 1 mg/kg i.p. daily, cisplatin 2 mg/kg twice weekly) was “did not have a statistically significant effect”. For the same molecule, the “binding to human CD36 in ELISA” value [4] was “able to specifically bind”.
